Source: publication PMC11393341, “The ASC inflammasome adapter governs SAA-derived protein aggregation in inflammatory amyloidosis” (EMBO Molecular Medicine, 2024)

Molecular target: T1, Monomeric human ASC-His (recombinant full-length ASC) (human, UniProt Q9ULZ3 1-195)
T1 construct: ASC (apoptosis-associated speck-like protein containing a CARD), human, recombinant full-length, monomeric; The methods list ASC-His and ASC-GFP-His; also called apoptosis-associated speck-like protein containing a caspase recruitment domain; monomeric recombinant human ASC; source: E. coli BL21(DE3), purified from inclusion bodies (Nickel beads, size exclusion chromatography)
Assay: limited proteolysis-coupled mass spectrometry (LiP-MS); purified monomeric recombinant ASC incubated with monomeric recombinant human SAA1, 15 min at 37 °C in LiP buffer (100 mM HEPES pH 7.4, 150 mM KCl, 1 mM MgCl2); proteinase K 1:100 (w/w) 5 min at 37 °C; ASC peptides compared with and without SAA1
Conditions: both partners purified

T1 sequence (Q9ULZ3 whole entry, the tested form may be a part): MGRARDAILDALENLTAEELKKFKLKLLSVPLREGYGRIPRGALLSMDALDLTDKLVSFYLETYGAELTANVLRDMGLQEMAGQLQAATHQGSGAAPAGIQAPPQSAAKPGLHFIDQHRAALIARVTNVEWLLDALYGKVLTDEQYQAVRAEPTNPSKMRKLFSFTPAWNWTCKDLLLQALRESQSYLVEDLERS

B1: recombinant human SAA1 (natural protein, UniProt P0DJI8 19-122, looked up)
chain: RSFFSFLGEAFDGARDMWRAYSDMREANYIGSDKYFHARGNYDAAKRGPGGAWAAEVITDARENIQRFFGHGAEDSLADQAANEWGRSGKDPNHFRPAGLPEKY
notes: Serum amyloid A-1 (SAA1), human, recombinant; The assay format tells the two apart; How the fibrils were made is not described; also called serum amyloid A; monomeric recombinant human SAA1
Q: Does B1 bind?
A: binds
